What was measured:
[1] = target: T1, α4β2 (Homo sapiens, UniProt P17787+P43681); assay: Ion channel panel (IonWorks Barracuda): α4β2; assay type: cell-based; settings: 100% = no change, <100% = inhibition
T1 construct: host or cells: HEK293 or CHO
In short: (§1)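 Peptides were tested in duplicate at final 20 μM and 200 nM, with concentration set by amino acid analysis, in HEPES-buffered saline. They were applied for at least 5 min to HEK293 or CHO cells transfected with each channel. Currents were expressed as % inhibition, 1-(Ipeptide/Icontrol)×100, or % activation, Ipeptide/Icontrol×100, against a channel-matched reference compound.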

[2] = target: T2, TRPV1 (Homo sapiens, UniProt Q8NER1); assay: Ion channel panel (IonWorks Barracuda): TRPV1; assay type: cell-based; settings: 100% = no change, <100% = inhibition
T2 construct: host or cells: HEK293 or CHO
In short: as §1

[3] = target: T3, Nav1.7 (Homo sapiens, UniProt Q15858); assay: cell-based; assay type: cell-based; settings: 100% = no change; for Activity of Nav1.7 with peptide, expressed as a percentage of the reference compound: peptide at 0.2 μM; for Activity of Nav1.7 with peptide (percentage of the reference compound): peptide at 20 μM
T3 construct: host or cells: HEK293 or CHO
T3 sequence (Q15858 whole entry): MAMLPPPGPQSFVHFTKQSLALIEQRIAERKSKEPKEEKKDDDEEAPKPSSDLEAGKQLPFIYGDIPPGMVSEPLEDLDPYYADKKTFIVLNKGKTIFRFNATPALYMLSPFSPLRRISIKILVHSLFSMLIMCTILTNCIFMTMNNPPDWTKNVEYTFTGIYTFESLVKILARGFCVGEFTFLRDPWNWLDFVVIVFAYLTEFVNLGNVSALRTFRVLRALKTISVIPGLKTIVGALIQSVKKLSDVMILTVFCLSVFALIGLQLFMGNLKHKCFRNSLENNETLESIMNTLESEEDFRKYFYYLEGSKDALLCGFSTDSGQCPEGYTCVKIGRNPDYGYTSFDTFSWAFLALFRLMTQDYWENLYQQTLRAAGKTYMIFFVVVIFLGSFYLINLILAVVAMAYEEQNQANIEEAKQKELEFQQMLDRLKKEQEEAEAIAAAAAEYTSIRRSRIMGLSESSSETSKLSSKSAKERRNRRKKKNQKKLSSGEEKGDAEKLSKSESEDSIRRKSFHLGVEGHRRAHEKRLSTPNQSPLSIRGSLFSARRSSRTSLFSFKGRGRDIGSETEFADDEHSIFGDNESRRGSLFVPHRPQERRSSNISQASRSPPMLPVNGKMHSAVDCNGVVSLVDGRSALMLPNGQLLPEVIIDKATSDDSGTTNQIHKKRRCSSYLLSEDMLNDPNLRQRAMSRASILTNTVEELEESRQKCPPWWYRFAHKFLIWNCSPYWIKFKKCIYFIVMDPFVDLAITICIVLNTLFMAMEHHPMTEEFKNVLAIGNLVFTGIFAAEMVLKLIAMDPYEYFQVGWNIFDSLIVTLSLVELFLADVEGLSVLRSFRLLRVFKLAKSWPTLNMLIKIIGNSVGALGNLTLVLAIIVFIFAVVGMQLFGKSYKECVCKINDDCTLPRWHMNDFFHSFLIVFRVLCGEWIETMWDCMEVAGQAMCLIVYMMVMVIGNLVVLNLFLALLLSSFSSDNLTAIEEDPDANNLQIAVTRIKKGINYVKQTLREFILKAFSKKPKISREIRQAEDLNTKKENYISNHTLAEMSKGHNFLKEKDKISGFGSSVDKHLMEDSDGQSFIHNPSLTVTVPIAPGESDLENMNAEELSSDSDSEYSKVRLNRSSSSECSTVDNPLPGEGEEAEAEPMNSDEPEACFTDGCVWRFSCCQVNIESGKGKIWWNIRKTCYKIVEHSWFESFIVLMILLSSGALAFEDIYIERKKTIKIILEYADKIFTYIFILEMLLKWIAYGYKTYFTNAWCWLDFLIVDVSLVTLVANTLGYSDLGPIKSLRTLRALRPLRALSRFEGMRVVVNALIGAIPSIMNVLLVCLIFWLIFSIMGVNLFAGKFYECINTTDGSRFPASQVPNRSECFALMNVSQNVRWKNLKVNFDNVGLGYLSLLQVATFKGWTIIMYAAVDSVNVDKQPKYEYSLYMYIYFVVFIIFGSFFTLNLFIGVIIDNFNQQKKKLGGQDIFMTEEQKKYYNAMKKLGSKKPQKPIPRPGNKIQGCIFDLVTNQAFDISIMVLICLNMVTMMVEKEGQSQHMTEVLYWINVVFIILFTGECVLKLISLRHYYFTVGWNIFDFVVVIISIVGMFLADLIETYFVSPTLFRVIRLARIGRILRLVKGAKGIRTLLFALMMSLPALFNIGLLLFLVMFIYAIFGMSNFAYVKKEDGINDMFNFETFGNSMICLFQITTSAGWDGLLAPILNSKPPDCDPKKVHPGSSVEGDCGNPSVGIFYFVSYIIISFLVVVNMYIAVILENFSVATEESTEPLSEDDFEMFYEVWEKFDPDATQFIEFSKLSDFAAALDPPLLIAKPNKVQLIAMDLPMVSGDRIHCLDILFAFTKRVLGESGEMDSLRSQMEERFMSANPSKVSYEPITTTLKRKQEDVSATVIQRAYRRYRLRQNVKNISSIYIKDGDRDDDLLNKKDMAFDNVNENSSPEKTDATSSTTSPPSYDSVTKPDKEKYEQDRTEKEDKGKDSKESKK

[4] = target: T4, Kir2.1 (Homo sapiens, UniProt P63252); assay: Ion channel panel (IonWorks Barracuda): Kir2.1; assay type: cell-based; settings: 100% = no change, <100% = inhibition
T4 construct: host or cells: HEK293 or CHO
In short: as §1

[5] = target: T5, α3β4 (Homo sapiens, UniProt P30926+P32297); assay: Ion channel panel (IonWorks Barracuda): α3β4; assay type: cell-based; settings: 100% = no change, <100% = inhibition
T5 construct: host or cells: HEK293 or CHO
In short: as §1

[6] = target: T6, Kv1.3 (Homo sapiens, UniProt P22001); assay: cell-based; assay type: cell-based; settings: 100% = no change, <100% = inhibition
T6 construct: host or cells: HEK293 or CHO
In short: as §1

[7] = target: T7, Kv1.2 (Homo sapiens, UniProt P16389); assay: cell-based; assay type: cell-based; settings: 100% = no change, <100% = inhibition
T7 construct: host or cells: HEK293 or CHO
In short: as §1

[8] = target: T8, Kv1.1 (Homo sapiens, UniProt Q09470); assay: cell-based; assay type: cell-based; settings: 100% = no change, <100% = inhibition
T8 construct: host or cells: HEK293 or CHO
In short: as §1

[9] = target: T9, 5HT3a (Homo sapiens, UniProt P46098); assay: Ion channel panel (IonWorks Barracuda): 5HT3a; assay type: cell-based
T9 construct: host or cells: HEK293 or CHO
T9 sequence (P46098 whole entry, looked up): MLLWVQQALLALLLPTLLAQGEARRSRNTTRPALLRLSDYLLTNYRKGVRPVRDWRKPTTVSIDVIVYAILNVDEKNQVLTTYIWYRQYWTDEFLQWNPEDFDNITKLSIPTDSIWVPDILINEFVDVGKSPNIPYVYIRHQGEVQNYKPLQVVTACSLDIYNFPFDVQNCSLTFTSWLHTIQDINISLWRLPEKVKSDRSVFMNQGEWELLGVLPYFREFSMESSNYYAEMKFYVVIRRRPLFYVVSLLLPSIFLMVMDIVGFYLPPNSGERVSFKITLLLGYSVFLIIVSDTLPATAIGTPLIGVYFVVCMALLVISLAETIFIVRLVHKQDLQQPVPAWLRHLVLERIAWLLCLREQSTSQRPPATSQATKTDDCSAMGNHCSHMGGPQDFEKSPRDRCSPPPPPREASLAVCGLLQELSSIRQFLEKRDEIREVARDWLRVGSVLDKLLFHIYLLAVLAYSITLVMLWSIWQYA
In short: as §1

[10] = target: hERG (Homo sapiens, UniProt Q12809); assay: in vitro; settings: 100% = no change, <100% = inhibition
In short: as §1

[11] = target: Nav1.5 (Homo sapiens, UniProt Q14524); assay: in vitro; settings: 100% = no change; for Activity of Nav1.5 with peptide, expressed as a percentage of the reference compound: peptide at 0.2 μM; for Activity of Nav1.5 with peptide (percentage of the reference compound): peptide at 20 μM
Sequence of Nav1.5 (Q14524 whole entry): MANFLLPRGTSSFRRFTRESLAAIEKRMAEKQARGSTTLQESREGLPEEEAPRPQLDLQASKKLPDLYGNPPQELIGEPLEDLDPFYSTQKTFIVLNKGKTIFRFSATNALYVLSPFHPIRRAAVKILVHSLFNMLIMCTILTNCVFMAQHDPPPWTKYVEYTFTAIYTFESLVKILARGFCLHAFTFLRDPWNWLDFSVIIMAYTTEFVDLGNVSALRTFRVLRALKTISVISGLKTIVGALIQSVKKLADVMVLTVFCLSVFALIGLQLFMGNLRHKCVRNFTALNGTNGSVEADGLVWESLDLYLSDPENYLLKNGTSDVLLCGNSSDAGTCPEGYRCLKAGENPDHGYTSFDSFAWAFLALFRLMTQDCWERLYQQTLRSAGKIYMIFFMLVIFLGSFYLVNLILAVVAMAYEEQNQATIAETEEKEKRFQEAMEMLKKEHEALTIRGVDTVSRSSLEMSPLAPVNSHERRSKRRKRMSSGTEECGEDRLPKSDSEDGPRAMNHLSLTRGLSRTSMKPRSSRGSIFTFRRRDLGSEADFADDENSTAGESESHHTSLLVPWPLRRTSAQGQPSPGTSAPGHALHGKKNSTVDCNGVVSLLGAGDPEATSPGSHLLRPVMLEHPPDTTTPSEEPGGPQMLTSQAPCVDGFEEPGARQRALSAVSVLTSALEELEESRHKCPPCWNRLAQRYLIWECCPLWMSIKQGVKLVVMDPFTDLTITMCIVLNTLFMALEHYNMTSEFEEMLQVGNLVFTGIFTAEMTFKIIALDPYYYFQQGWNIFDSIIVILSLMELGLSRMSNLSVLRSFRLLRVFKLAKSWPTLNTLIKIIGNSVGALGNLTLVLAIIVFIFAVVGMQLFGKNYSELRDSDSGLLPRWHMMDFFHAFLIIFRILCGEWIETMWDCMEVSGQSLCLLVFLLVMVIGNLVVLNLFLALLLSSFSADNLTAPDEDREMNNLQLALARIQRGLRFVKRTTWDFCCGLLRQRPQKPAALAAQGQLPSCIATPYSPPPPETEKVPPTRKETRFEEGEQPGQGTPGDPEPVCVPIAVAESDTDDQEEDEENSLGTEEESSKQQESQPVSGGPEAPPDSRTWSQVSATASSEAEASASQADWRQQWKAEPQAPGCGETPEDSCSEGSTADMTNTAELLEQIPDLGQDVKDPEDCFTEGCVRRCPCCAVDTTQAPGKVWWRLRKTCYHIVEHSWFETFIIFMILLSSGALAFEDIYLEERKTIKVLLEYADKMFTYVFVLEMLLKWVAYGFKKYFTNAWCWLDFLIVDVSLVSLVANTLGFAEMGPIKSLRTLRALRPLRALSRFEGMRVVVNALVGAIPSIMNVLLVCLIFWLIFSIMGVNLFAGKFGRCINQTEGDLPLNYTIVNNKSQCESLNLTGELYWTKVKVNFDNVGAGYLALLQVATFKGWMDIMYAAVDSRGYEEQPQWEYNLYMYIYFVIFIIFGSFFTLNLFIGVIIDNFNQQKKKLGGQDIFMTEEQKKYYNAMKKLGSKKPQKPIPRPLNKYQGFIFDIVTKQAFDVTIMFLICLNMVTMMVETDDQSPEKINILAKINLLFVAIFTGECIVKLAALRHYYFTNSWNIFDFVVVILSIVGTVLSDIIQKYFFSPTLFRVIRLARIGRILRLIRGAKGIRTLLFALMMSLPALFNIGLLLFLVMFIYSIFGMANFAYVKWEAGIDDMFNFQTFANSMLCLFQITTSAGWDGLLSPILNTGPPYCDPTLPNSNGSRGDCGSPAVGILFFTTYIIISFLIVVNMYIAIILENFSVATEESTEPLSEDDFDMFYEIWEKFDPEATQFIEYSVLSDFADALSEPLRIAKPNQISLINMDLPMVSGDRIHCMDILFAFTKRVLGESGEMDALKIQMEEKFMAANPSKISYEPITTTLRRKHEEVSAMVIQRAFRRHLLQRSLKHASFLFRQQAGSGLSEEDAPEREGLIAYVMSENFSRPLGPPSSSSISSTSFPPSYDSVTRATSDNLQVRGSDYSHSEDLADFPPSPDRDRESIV
In short: as §1

[12] = test system: GABA; assay: Ion channel panel (IonWorks Barracuda): GABA; assay type: cell-based; settings: 100% = no change, <100% = inhibition
In short: as §1

[13] = target: T10, NR2B (Homo sapiens, UniProt Q13224); assay: Ion channel panel (IonWorks Barracuda): NR2B; assay type: cell-based; settings: 100% = no change, <100% = inhibition
T10 construct: host or cells: HEK293 or CHO
In short: as §1

[14] = target: T11, Cav2.1 (Homo sapiens, UniProt O00555); assay: cell-based; settings: 100% = no change, <100% = inhibition
T11 construct: host or cells: HEK293 or CHO
In short: as §1

[15] = target: T12, Kv2.1 (Homo sapiens, UniProt Q14721); assay: cell-based; settings: 100% = no change, <100% = inhibition
T12 construct: host or cells: HEK293 or CHO
T12 sequence (Q14721 whole entry): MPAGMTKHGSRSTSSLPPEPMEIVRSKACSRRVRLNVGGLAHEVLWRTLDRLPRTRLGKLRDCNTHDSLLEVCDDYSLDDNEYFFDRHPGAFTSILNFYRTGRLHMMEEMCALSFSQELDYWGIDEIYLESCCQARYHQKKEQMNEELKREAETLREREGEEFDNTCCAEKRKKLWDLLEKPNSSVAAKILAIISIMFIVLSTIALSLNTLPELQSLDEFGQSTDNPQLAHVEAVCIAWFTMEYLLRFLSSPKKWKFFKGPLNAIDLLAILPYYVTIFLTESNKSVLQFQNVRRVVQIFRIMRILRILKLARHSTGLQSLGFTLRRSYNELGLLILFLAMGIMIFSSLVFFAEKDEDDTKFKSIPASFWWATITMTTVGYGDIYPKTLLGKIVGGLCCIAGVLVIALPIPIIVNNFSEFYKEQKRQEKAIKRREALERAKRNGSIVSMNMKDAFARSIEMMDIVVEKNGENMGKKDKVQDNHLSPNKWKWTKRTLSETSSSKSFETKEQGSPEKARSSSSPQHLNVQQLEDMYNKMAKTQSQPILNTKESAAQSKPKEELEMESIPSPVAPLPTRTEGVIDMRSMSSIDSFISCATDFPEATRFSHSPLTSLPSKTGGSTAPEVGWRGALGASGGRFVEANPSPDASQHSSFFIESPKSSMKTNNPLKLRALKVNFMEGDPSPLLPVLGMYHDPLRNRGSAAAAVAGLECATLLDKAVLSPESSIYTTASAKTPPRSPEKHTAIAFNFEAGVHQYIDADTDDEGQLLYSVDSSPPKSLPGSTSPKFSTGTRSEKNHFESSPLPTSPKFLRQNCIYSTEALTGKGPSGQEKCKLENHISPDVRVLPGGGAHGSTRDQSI
In short: as §1

[16] = target: T13, Cav2.2 (Homo sapiens, UniProt Q00975); assay: cell-based; settings: 100% = no change, <100% = inhibition
T13 construct: host or cells: HEK293 or CHO
In short: as §1

[17] = target: T14, NR2A (Homo sapiens, UniProt Q12879); assay: Ion channel panel (IonWorks Barracuda): NR2A; assay type: cell-based; settings: 100% = no change, <100% = inhibition
T14 construct: host or cells: HEK293 or CHO
In short: as §1

[18] = target: T15, TRPA1 (Homo sapiens, UniProt O75762); assay: Ion channel panel (IonWorks Barracuda): TRPA1; assay type: cell-based; settings: 100% = no change, <100% = inhibition
T15 construct: host or cells: HEK293 or CHO
In short: as §1

[19] = first of two Nav1.7 columns (probably TP1)
[20] = second of two Nav1.7 columns (probably TP2)
[21] = first of two Nav1.5 columns (probably TP1)
[22] = second of two Nav1.5 columns (probably TP2)

“13 (GSQKILSNRCNNSSECIPHCIRIFGTRAAKCINRKCYCYP) [compound 13]” was tested, and the “Activity of a4b2 with peptide, expressed as a percentage of the reference compound” value ([1]; peptide at 0.2 μM) was 97%, the “Activity of a4b2 with peptide (percentage of the reference compound)” value ([1]; peptide at 20 μM) was 80% and the “Activity of TRPV1 with peptide, expressed as a percentage of the reference compound” value ([2]; peptide at 0.2 μM) was 97%. For the same substance, the “Activity of TRPV1 with peptide (percentage of the reference compound)” value ([2]; peptide at 20 μM) was 88%, the “Activity of Nav1.7 with peptide, expressed as a percentage of the reference compound” value [3, 19] was 61% and the “Activity of Nav1.7 with peptide, expressed as a percentage of the reference compound” value [3, 20] was 66%. The “Activity of Nav1.7 with peptide (percentage of the reference compound)” value [3, 19] was 71%, the “Activity of Nav1.7 with peptide (percentage of the reference compound)” value [3, 20] was 62% and the “Activity of Kir2.1 with peptide, expressed as a percentage of the reference compound” value ([4]; peptide at 0.2 μM) was 97%. The “Activity of Kir2.1 with peptide (percentage of the reference compound)” value ([4]; peptide at 20 μM) was 98%, the “Activity of a3b4 with peptide, expressed as a percentage of the reference compound” value ([5]; peptide at 0.2 μM) was 103% and the “Activity of a3b4 with peptide (percentage of the reference compound)” value ([5]; peptide at 20 μM) was 83%. The “Activity of Kv1.3 with peptide, expressed as a percentage of the reference compound” value ([6]; peptide at 0.2 μM) was 68%, the “Activity of Kv1.3 with peptide (percentage of the reference compound)” value ([6]; peptide at 20 μM) was 64% and the “Activity of Kv1.2 with peptide, expressed as a percentage of the reference compound” value ([7]; peptide at 0.2 μM) was 88%. The “Activity of Kv1.2 with peptide (percentage of the reference compound)” value ([7]; peptide at 20 μM) was 40%, the “Activity of Kv1.1 with peptide, expressed as a percentage of the reference compound” value ([8]; peptide at 0.2 μM) was 107% and the “Activity of Kv1.1 with peptide (percentage of the reference compound)” value ([8]; peptide at 20 μM) was 79%. For the same substance, the “Activity of 5HT3a with peptide (percentage of the reference compound)” value [9] was 84%, the “Activity of 5HT3a with peptide, expressed as a percentage of the reference compound” value [9] was 96% and the “Activity of hERG with peptide, expressed as a percentage of the reference compound” value ([10]; peptide at 0.2 μM) was 89%. The “Activity of hERG with peptide (percentage of the reference compound)” value ([10]; peptide at 20 μM) was 67%, the “Activity of Nav1.5 with peptide, expressed as a percentage of the reference compound” value [11, 21] was 98% and the “Activity of Nav1.5 with peptide, expressed as a percentage of the reference compound” value [11, 22] was 95%. The “Activity of Nav1.5 with peptide (percentage of the reference compound)” value [11, 21] was 97%, the “Activity of Nav1.5 with peptide (percentage of the reference compound)” value [11, 22] was 101% and the “Activity of GABA with peptide, expressed as a percentage of the reference compound” value ([12]; peptide at 0.2 μM) was 107%. The “Activity of GABA with peptide (percentage of the reference compound)” value ([12]; peptide at 20 μM) was 93%, the “Activity of NR2B with peptide, expressed as a percentage of the reference compound” value ([13]; peptide at 0.2 μM) was 122% and the “Activity of NR2B with peptide (percentage of the reference compound)” value ([13]; peptide at 20 μM) was 117%. The “Activity of Cav2.1 with peptide, expressed as a percentage of the reference compound” value ([14]; peptide at 0.2 μM) was 109%, the “Activity of Cav2.1 with peptide (percentage of the reference compound)” value ([14]; peptide at 20 μM) was 100% and the “Activity of Kv2.1 with peptide, expressed as a percentage of the reference compound” value ([15]; peptide at 0.2 μM) was 104%. For the same substance, the “Activity of Kv2.1 with peptide (percentage of the reference compound)” value ([15]; peptide at 20 μM) was 116%, the “Activity of Cav2.2 with peptide, expressed as a percentage of the reference compound” value ([16]; peptide at 0.2 μM) was 121% and the “Activity of Cav2.2 with peptide (percentage of the reference compound)” value ([16]; peptide at 20 μM) was 100%. For the same substance, the “Activity of NR2A with peptide, expressed as a percentage of the reference compound” value ([17]; peptide at 0.2 μM) was 94%, the “Activity of NR2A with peptide (percentage of the reference compound)” value ([17]; peptide at 20 μM) was 108% and the “Activity of TRPA1 with peptide, expressed as a percentage of the reference compound” value ([18]; peptide at 0.2 μM) was 129%. The “Activity of TRPA1 with peptide (percentage of the reference compound)” value ([18]; peptide at 20 μM) was 113%.
